Residue numbers refer to the chain shown, from its start. Names and notes keep the numbering of the source.
Key:
[1] = biological target: T1, Human GAL3 protein (TrueBinding, QCB200349 / QCB200352; R&D Systems, 8259-GA) (human, UniProt P17931 2-250); assay: blocking ELISA (GAL3 coated; antibody + biotinylated ITGa3)
T1 construct: also called human galectin-3

[2] = biological target: T1, Human GAL3 protein (TrueBinding, …); assay: blocking ELISA (GAL3 coated; antibody + biotinylated ITGaV)
[3] = biological target: T1, Human GAL3 protein (TrueBinding, …); assay: blocking ELISA (GAL3 coated; antibody + biotinylated ITGb1)
[4] = biological target: T1, Human GAL3 protein (TrueBinding, …); assay: blocking ELISA (GAL3 coated; antibody + biotinylated ITGb3)
[5] = biological target: T2, Human Galectin-3 protein (Acro Biosystems, GA3-H5129) (human, UniProt P17931 2-250); assay: ELISA, blocking of INSR binding to coated Gal3
T2 construct: Bought protein; also called Gal3-ECD-His; Gal3-His; not shown: linker-spaced 6-histidine tag

[6] = biological target: T2, Human Galectin-3 protein (Acro …); assay: ELISA, blocking of INSR binding to coated Gal3; remark: listed apart in the source
[7] = biological target: T2, Human Galectin-3 protein (Acro …); assay: SPR (Biacore T200), antibody captured, Galectin-3 as analyte
[8] = biological target: T2, Human Galectin-3 protein (Acro …); assay: blocking ELISA (Gal3 coated; antibody 3 µg/mL + INSR)
[9] = biological target: T2, Human Galectin-3 protein (Acro …); assay: SPR (Biacore T200; antibody captured via anti-Fc, Galectin-3 analyte, 1:1 fit)
[10] = biological target: T1, Human GAL3 protein (TrueBinding, …); assay: cell-based or functional assay
[11] = biological target: T3, Gal3 Peptide 7 (AYPGAPGAYPGAPAPGVYPG) (human); assay: peptide ELISA (peptide coated; antibody hIgG4 [S228P], 5 µg/mL)
T3 peptide: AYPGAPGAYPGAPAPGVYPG

[12] = biological target: T4, Gal3 Peptide 1 (ADNFSLHDALSGSGNPNPQG) (human); assay: as above
T4 peptide: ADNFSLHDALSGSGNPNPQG

B1: IMT006 (TB006) (antibody, V domains shown)
VH: QVQLVQSGAEVKKPGASVKVSCKASGYSFTNYYMHWVRQAPGQRLEWMGWIYPGSGNTNYNEKFQGRVTITADTSASTAYMELSSLRSEDTAVYYCSTAPGGFDVWGQGTTVTVSS
VL: DIVMTQTPLSLSVTPGQPASISCKSSKSLLHSDGITYLYWYLQKPGQSPQLLIYRMSNLASGVPDRFSGSGSGTDFTLKISRVEAEDVGVYYCAQMLEFPLTFGQGTKLEIK
notes: anti-Gal3 antibody
percent blockade of GAL3-ITGa3 interaction [1]: > 90%
percent blockade of GAL3-ITGaV interaction [2]: > 90%
percent blockade of GAL3-ITGb1 interaction [3]: > 90%
percent blockade of GAL3-ITGb3 interaction [4]: > 90%
IC50 (read off the curve) [5]: ~0.7 µg/mL
Gal3-INSR Blocking @ 3 µg/mL [6]: 100%
Kd [7]: 16.5 nM

B2: 14H10.2C9 (antibody, V domains shown)
VH: QIQLVQSGPELKKPGETVKISCKASGYTFTTYGMGWVKQAPGKDLKWMGWINTYSGVPTYADDFKGRFAFSLETSASTAYLQISNLKNEDTATYFCSTPYEYDGAYWGQGTLVTVSA
VL: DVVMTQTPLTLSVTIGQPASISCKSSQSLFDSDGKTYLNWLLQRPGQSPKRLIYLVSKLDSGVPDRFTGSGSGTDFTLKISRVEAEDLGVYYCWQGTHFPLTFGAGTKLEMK
Gal3-INSR binding remaining, % of unblocked sample [8]: < 5%
percent blockade of GAL3-ITGa3 interaction [1]: > 90%
percent blockade of GAL3-ITGaV interaction [2]: > 90%
percent blockade of GAL3-ITGb3 interaction [4]: > 90%
Gal3-INSR Blocking @ 3 µg/mL [6]: 100%
Kd [7]: 0.562 nM

B3: 13A12.2E5 (antibody, V domains shown)
VH: QIQLVQSGPELKKPGETVKISCKTSGYKFKTYVMSWVKQAPGKALKWMGWINTYSGVPTYADDFKGRFAFSLETSASTAYLEIINLKNEDTATYFCARDGNYGDPMDYWGQGTSVTVSS
VL: DVVMTQTPLTLSVAIGQPASISCKSSQSLLYTNGKTYLNWLLQRPGQSPKRLIYLLSKLDSGVPDRFSASGSGTDFTLKISRVEAEDLGVYYCLQSTHFPLTFGAGTKLEMK
Gal3-INSR binding remaining, % of unblocked sample [8]: < 5%
percent blockade of GAL3-ITGa3 interaction [1]: > 90%
percent blockade of GAL3-ITGb3 interaction [4]: > 90%
Gal3-INSR Blocking @ 3 µg/mL [6]: 97%
Kd [7]: 8.2 nM

B4: F846C.1F5 (antibody, V domains shown)
VH: QIQLVQSGPELKKPGETVKISCKASGYTFTNYGMNWVKQAPGKGLKWMGWINTYTGEPSYADDFKGRFAFSLETSASTAYLQINNLKNEDMATYFCARWGGYDGDYYAMDYWGQGTSVTVSS
VL: NIMMTQSPSSLAVSAGEKVTMSCKSSQSVLYSSNQKNYLAWYQQKPGQSPKLLIYWASTRESGVPDRFTGSGSGTDFTLTISSVQPEDLAVYYCHQYLSSLTFGAGTKLELK
notes: also called 846.1F5
percent blockade of GAL3-ITGa3 interaction [1]: > 90%
percent blockade of GAL3-ITGaV interaction [2]: > 90%
percent blockade of GAL3-ITGb1 interaction [3]: > 90%
percent blockade of GAL3-ITGb3 interaction [4]: > 90%

B5: IMT001 (TB001) (antibody, V domains shown)
VH: QVQLVQSGSELKKPGASVKVSCKASGYTFTNYGMNWVRQAPGQGLKWMGWINTNTGEPTYVEEFTGRFVFSLETSVSTAYLQISSLKAEDTAVYFCAPYDNFFAYWGQGTTVTVSS
VL: DIVLTQSPLSLPVTPGEPASISCRSSKSLLYKDGKTYLNWFLQKPGQSPQLLIYLMSTHASGVPDRFSGSGSGTDFTLKISRVEAEDVGVYYCQQLVDYPLTFGGGTKLEIK
notes: anti-Gal3 antibody; also called IMT001-4
percent blockade of GAL3-ITGa3 interaction [1]: > 90%
percent blockade of GAL3-ITGaV interaction [2]: > 90%
percent blockade of GAL3-ITGb1 interaction [3]: > 90%
percent blockade of GAL3-ITGb3 interaction [4]: > 90%
IC50 (read off the curve) [5]: ~0.8 µg/mL
Gal3-INSR Blocking @ 3 µg/mL [6]: 100%
Kd [7]: 6.09 nM

B6: 13G4.2F8 (antibody, V domains shown)
VH: QVQLQQPGAELVKPGASVKLSCKASGYTFTSYWMHWVKQRPGQGLEWIGMIHPNSGSTDYNEKFKNKATLNVDKSSSTAYIQLSSLTSEDSAVYYCTRWGIYYYARDYWGQGTTLTVSS
VL: DIVMTQSQKFMSTSVGERVSITCKASQNVGTNVAWYQQKAGQSLELLIYGASNRHTGVPDRFTGSGSGTDFTLTITNVQSEDMTNYFCEQYSNFPLTFGAGTKLELK
reduction of Gal3-INSR binding (%) [8]: ≤ 30%
percent blockade of GAL3-ITGa3 interaction [1]: < 35%
percent blockade of GAL3-ITGaV interaction [2]: < 30%
percent blockade of GAL3-ITGb3 interaction [4]: < 10%
Gal3-INSR Blocking @ 3 µg/mL [6]: 11%
Kd [7]: 2.53 nM
Kd [9]: 18.4 nM

B7: 20D11.2C6 (antibody, V domains shown)
VH: EVQLQQSGPELVKPGASVKISCKASGYTFTDFYINWVKQSHGKSLEWIGDINPKNGGINYNPKFKIKATLTVDKSSSTSYMDLRGLTSEDSAVYYCTSGYGFPYWGQGTLVTVSA
VL: DIQMNQSPSSLSASLGDTITITCRASQNIYIWLSWYQQKPGNIPKLLIYKASNLHTGVPSRFSGSGSGTDFTLTISTLQPEDIATYFCLQGQSYPLTFGAGTKLEMK
inhibition of Jurkat T cell adhesion [10]: > 90%
Gal3-INSR binding remaining, % of unblocked sample [8]: < 5%
percent blockade of GAL3-ITGa3 interaction [1]: > 90%
percent blockade of GAL3-ITGaV interaction [2]: > 90%
percent blockade of GAL3-ITGb3 interaction [4]: > 90%
Gal3-INSR Blocking @ 3 µg/mL [6]: 100%
Kd [7]: 27.8 nM

B8: 15G7.2A7 (antibody, V domains shown)
VH: B7 VH with F32Y, I34M, K54N, I58T, P62Q, I66G, S79A, D82E, G85S
VL: B7 VL with T20S, Y30N, K45Q, T77S, F87Y, E105V
Gal3-INSR Blocking @ 3 µg/mL [6]: 100%
Kd [7]: 11.3 nM
Kd [9]: 27.8 nM

B9: 2D10.2B2 (antibody, V domains shown)
VH: QVQLQQSGPELVKPGASVKISCKASGYTFTDYYINWVKQRPGQGLEWIGWIYPGSNDTKYNEKFKGKATLTVDTSSSTAYMQLGSLTSEDSAVYFCANYFGCSGWFFDVWGTGTTVTVSS
VL: DIVMTQAAFSNPVTLGTSASISCRSSKSLLHSDGITYLYWYLQRPGQSPQLLIYRMSNLASGVPDRFSGSGSGTDFTLRISRVEAEDVGVYYCAQMIEFPLTFGAGTILELK
Gal3-INSR binding remaining, % of unblocked sample [8]: < 5%
percent blockade of GAL3-ITGa3 interaction [1]: > 90%
percent blockade of GAL3-ITGaV interaction [2]: > 90%
percent blockade of GAL3-ITGb3 interaction [4]: > 90%
IC50 (read off the curve) [5]: ~0.5 µg/mL
Gal3-INSR Blocking @ 3 µg/mL [6]: 100%
Kd [7]: 0.753 nM

B10: 19B5.2E6 (antibody, V domains shown)
VH: QIQLVQSGPELKKPGETVKISCKASGYTFTTYAMSWVKQAPGKGLKWMGWINTYSGVPTYADDLKGRFAFSLETSASTAYLQINNLKNEDTATYFCARGPYAMDYWGQGTSVTVSS
VL: DIQMTQTTSSLSASLGDRVTISCSASQGINNYLNWYQQKPDGTVKLLIYYASSLHSGVPSRFSGSGSGTDYSLTISNLEPEDIATYYCQQYSQVPYTFGSGTKLEIK
Gal3-INSR binding remaining, % of unblocked sample [8]: < 5%
percent blockade of GAL3-ITGa3 interaction [1]: > 90%
percent blockade of GAL3-ITGaV interaction [2]: > 90%
percent blockade of GAL3-ITGb3 interaction [4]: > 90%
binding result [11]: binds
binding result [12]: binds
Gal3-INSR Blocking @ 3 µg/mL [6]: 100%
Kd [7]: < 1 nM

B11: 12G5.D7 (antibody, V domains shown)
VH: QVQLKQSGAELVRPGASVKLSCKASGYTFTDYYINWVKQRPGQGLEWIARIYPGTGNTDYNEKFKGRATLTAEKSSSTAYMQLSSLTSEDSAVYFCARFAYYYGSGGYFDYWGHGTTLTVSS
VL: DILMTQSPSSMSVSLGDTVSITCHASQGINSNMGWLQQKPGKSFKGLIYHATNLEDGVPSRFSGSGSGADYSLTISSLESEDFADYYCVQYAQFPPTFGSGTKLEIK
reduction of Gal3-INSR binding (%) [8]: ≤ 30%
percent blockade of GAL3-ITGa3 interaction [1]: < 35%
percent blockade of GAL3-ITGaV interaction [2]: < 30%
percent blockade of GAL3-ITGb3 interaction [4]: < 10%
Gal3-INSR Blocking @ 3 µg/mL [6]: 27%
Kd [7]: 1.9 nM
